US20240247080A1, “GLP1/GIP/NPY2 RECEPTOR TRIPLE AGONISTS” (Boehringer Ingelheim International GmbH, priority 2022, published 2024)
Where a chain is given by its changes, count along the chain named. Starred links: 1 amine or outer side, 2 acyl side, 3 side chain; linkers in the order of their positions; H or OH if unused. Non-standard residues stand in square brackets, D forms with d. Groups on a side chain read outwards from the residue. No end group written: not given here. *: point of attachment. C20 diacid = O=C(O)CCCCCCCCCCCCCCCCCCC(=O)*; C18 diacid = O=C(O)CCCCCCCCCCCCCCCCC(=O)*; γGlu = O=C(O)[C@H](CCC(=O)[*:2])N[*:1]; AEEA = NCCOCCOCC(=O)O; Aib = CC(C)(N)C(=O)O

T1: human neuropeptide Y2 receptor (human, UniProt P49146 1-381)
T1 sequence (looked up): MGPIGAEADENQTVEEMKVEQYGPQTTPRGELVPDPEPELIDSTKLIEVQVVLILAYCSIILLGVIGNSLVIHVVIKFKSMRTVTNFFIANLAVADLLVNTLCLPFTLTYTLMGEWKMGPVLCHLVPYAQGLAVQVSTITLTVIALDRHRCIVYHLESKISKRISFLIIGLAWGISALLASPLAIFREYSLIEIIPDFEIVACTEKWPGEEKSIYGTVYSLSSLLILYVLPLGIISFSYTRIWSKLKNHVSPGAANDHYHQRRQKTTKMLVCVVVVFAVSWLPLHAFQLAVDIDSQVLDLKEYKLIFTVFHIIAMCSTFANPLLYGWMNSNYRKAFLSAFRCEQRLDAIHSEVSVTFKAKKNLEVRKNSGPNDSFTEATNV

T2: human GIP receptor (human, UniProt P48546 22-466)
T2 sequence (looked up): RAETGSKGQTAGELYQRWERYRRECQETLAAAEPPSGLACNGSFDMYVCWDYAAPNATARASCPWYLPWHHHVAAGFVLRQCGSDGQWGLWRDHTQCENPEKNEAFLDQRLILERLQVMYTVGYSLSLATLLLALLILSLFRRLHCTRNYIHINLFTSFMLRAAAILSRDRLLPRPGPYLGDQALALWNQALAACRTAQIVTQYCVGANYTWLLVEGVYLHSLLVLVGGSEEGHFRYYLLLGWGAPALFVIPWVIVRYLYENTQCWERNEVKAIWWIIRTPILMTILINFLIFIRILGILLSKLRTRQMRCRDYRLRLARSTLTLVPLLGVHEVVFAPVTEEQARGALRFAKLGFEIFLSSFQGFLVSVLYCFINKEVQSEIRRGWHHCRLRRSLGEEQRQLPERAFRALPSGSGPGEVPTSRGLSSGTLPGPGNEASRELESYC

B1: Compound 283 (peptide)
peptide: Y[Aib]EGTFTSDYSI[Aib]LEKQAQ[Aib]AFIEWLIK([γGlu-γGlu-γGlu-γGlu-C20 diacid])GGPSEGASLRHYYNWLTRQRY-NH2
modifications: also: TFA salt
B2: Compound 285 (peptide)
peptide: Y[Aib]EGTFTSDYSI[Aib]LEKQAQ[Aib]AFVEWLIKGGPEEGASLRHYYNWLTRQRY-NH2
modifications: not fully specified (residue 28); also: TFA salt
B3: Compound 282 (peptide)
peptide: Y[Aib]EGTFTSDYSI[Aib]LEKQAQ[Aib]EFVEWLIK([AEEA-AEEA-γGlu-C18 diacid])GGPSEGASLRHYYNWLTRQRY-NH2
modifications: also: TFA salt
B4: Compound 271 (peptide)
peptide: Y[Aib]EGTFTSDYSI[Aib]LEKQAQ[Aib]EFVEWLIK([γGlu-γGlu-γGlu-γGlu-C20 diacid])GGPSEGASLRHYYNWLTRQRY-NH2
modifications: also: TFA salt
B5: Compound 281 (peptide)
peptide: Y[Aib]EGTFTSDYSI[Aib]LEKQAQ[Aib]AFVQWLIK([Glu-Glu-Glu-Glu-C18 diacid])GGPSEGASLRHYYNWLTRQRY-NH2
modifications: also: TFA salt
B6: Compound 274 (peptide)
peptide: Y[Aib]EGTFTSDYSI[Aib]LEKQAQ[Aib]EFVEWLIK([AEEA-γGlu-γGlu-γGlu-C18 diacid])GGPSEGASLRHYYNWLTRQRY-NH2
modifications: also: TFA salt
B7: Compound 286 (peptide)
peptide: Y[Aib]EGTFTSDYSI[Aib]LEKQAQ[Aib]AFVEWLIKGGPSEGASLRHYYNWLTRQRY-NH2
modifications: not fully specified (residue 28); also: TFA salt
B8: Compound 275 (peptide)
peptide: YXEGTFTSDYSIXLEKQAQXEFVEWLIKGGPSEGASLRHYYNWLTRQRY
modifications: Aib at 2, 13, 20; K28 side chain acylated with C20DA-gGlu-gGlu-gGlu-gGlu-gGlu-gGlu-eLys; C-terminal amide (NH2)
B9: Compound 277 (peptide)
peptide: B8 peptide with E21A, Q47X
modifications: Aib at 2, 13, 20; bHGln (beta-homo-L-glutamine) at 47; K28 side chain acylated with C20DA-gGlu-gGlu-gGlu-gGlu-gGlu-gGlu-eLys; C-terminal amide (NH2)
B10: Compound 289 (peptide)
peptide: B8 peptide with E21A
modifications: Aib at 2, 13, 20; K28 side chain acylated with C20DA-gGlu-gGlu-gGlu-gGlu-gGlu; C-terminal amide (NH2)

Target: T1, human neuropeptide Y2 receptor
Assay: cell-based or functional assay

Row | Binder | EC50 hNPY2R 0.5% hP (CreLuc) | EC50 hNPY2R 100% hP (CreLuc)
1 | B1 | 14.7 nM | 104 nM
2 | B2 | 15.8 nM | 48.8 nM
3 | B3 | 17.3 nM | 71.4 nM
4 | B4 | 16.1 nM | 80 nM
5 | B5 | 23 nM | 169 nM
6 | B6 | 18.1 nM | 74.6 nM
7 | B7 | 15.7 nM | 43.4 nM
8 | B8 | 19.9 nM | 60 nM
9 | B9 | > 99.9 nM | 1120 nM
10 | B10 | 11.1 nM | 56.3 nM

Target: human GLP-1 receptor (human, UniProt P43220 24-463)
Assay: cell-based or functional assay

Row | Binder | EC50 hGLP1R 0.5% hP (CreLuc) | EC50 hGLP1R 100% hP (CreLuc)
11 | B1 | 0.13 nM | 3.86 nM
12 | B2 | 0.34 nM | 11.6 nM
13 | B3 | 0.51 nM | 24.6 nM
14 | B4 | 0.53 nM | 21.4 nM
15 | B5 | 0.07 nM | 1.78 nM
16 | B6 | 0.41 nM | 17.6 nM
17 | B7 | 0.27 nM | 5.97 nM
18 | B8 | 0.5 nM | 21.7 nM
19 | B9 | 0.19 nM | 1.29 nM
20 | B10 | 0.14 nM | 3.51 nM

Target: T2, human GIP receptor
Assay: cell-based or functional assay

Row | Binder | EC50 hGIPR 0.5% hP (CreLuc) | EC50 hGIPR 100% hP (CreLuc)
21 | B1 | 0.23 nM | 1.86 nM
22 | B2 | 1.57 nM | 1.54 nM
23 | B3 | 0.17 nM | 1.03 nM
24 | B4 | 0.62 nM | 2.62 nM
25 | B5 | 0.28 nM | 0.69 nM
26 | B6 | 0.23 nM | 1.78 nM
27 | B7 | 0.42 nM | 2.03 nM
28 | B8 | 0.27 nM | 1.75 nM
29 | B9 | 0.11 nM | 0.68 nM
30 | B10 | 0.7 nM | 1.75 nM
